Source: US20220023399

Experiments:
[1] = molecular target: T1, rabbit serum albumin, P49065
T1 chain: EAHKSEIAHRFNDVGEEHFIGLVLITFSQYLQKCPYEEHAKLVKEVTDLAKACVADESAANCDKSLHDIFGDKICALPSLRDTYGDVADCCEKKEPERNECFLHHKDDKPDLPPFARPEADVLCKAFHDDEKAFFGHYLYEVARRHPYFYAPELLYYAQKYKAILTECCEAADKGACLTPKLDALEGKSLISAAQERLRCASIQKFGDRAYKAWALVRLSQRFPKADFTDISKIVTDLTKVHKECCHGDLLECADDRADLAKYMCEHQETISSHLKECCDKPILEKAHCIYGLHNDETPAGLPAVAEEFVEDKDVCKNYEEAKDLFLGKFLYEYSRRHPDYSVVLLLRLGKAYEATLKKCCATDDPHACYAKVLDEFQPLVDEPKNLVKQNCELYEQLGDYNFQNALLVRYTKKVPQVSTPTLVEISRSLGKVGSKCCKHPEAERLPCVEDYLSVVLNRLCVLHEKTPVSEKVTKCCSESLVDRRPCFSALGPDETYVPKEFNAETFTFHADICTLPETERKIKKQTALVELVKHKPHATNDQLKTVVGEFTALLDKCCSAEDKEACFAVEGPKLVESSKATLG

B1: PlySs2 (CF-301) lysin (protein)
chain: MTTVNEALNNVRAQVGSGVSVGNGECYALASWYERMISPDATVGLGAGVGWVSGAIGDTISAKNIGSSYNWQANGWTVSTSGPFKAGQIVTLGATPGNPYGHVVIVEAVDGDRLTILEQNYGGKRYPVRNYYSAASYRQQVVHYITPPGTVAQSAPNLAGSRSYRETGTMTVTVDALNVRRAPNTSGEIVAVYKRGESFDYDTVIIDVNGYVWVSYIGGSGKRNYVATGATKDGKRFGNAWGTFK
Work on B1 yielded a Fold decrease in CF-301 MIC compared to media alone (delipidated human serum + Oleate 0.625 mg/mL) (human serum albumin) of 8 fold, a Fold decrease in CF-301 MIC compared to media alone (delipidated human serum + Palmitate 0.625 mg/mL) (human serum albumin) of 16 fold and a Fold decrease in CF-301 MIC compared to media alone (delipidated human serum + Palmitate + Oleate) (human serum albumin) of 16 fold. It also gave a Fold decrease in MIC (50% MHB/50% heat-inactivated human serum supplemented with HSA, 40 mg/mL) (human serum albumin) of 4 fold, a Fold decrease in MIC (MHB supplemented with HSA, 40 mg/mL) (human serum albumin) of 8 fold and a Fold increase in CF-301 specific activity with rHSA, 4% (human serum albumin) of 17.8 fold. The Specific Activity (Units/mg) of CF-301 in the lytic assay with rHSA, 4% (human serum albumin) was 43100 Units/mg, the “ΣFICavg (checkerboard, S. aureus, heat-inactivated human serum); HSA fraction V” value (human serum albumin) was no more than 0.086 and the “ΣFICavg (checkerboard, S. aureus, heat-inactivated human serum); HSA recombinant” value (human serum albumin) was no more than 0.1. The Fold decrease in MIC (50% MHB/50% heat-inactivated human serum supplemented with RabSA, 40 mg/mL) [1] was 4 fold, the Fold decrease in MIC (MHB supplemented with RabSA, 40 mg/mL) [1] was 8 fold and the “ΣFICavg (checkerboard, S. aureus, heat-inactivated human serum); rabbit serum albumin from serum” value [1] was no more than 0.1.
